Test results: PMC10039045

Target: enhanced GFP (EGFP)

- t1/2 of the normalized PCC increase between mCherry-eDHFR and EGFP-mito over time in live HeLa cells with 24 uM cRGT: 7.26 min
Substance: E. coli dihydrofolate reductase (eDHFR) (from UniProt P0ABQ4 1-159) (enzyme)
